Legend:
Assay in all cases: cell-based or functional assay
[1] = molecular target: T1, human FcγRIIa-H variant (Histidine at amino acid 131) (human, UniProt P12318 34-317)
T1 sequence (looked up): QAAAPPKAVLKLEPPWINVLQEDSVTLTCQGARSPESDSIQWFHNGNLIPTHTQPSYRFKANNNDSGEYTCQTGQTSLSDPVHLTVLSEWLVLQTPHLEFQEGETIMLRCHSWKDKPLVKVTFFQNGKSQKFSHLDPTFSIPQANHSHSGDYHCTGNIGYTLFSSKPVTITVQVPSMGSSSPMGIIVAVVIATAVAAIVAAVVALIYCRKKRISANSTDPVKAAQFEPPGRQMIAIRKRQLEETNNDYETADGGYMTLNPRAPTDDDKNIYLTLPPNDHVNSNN

FcγRIIIa [2] = molecular target: T2, FcγRIIIa (UniProt P08637 17-254)
[3] = molecular target: T1, human FcγRIIa-H variant (Histidine at …); remark: listed apart in the source
FcγRIIIa [4] = molecular target: T2, FcγRIIIa; remark: listed apart in the source

T2 sequence (P08637 17-254 F176V limits assumed): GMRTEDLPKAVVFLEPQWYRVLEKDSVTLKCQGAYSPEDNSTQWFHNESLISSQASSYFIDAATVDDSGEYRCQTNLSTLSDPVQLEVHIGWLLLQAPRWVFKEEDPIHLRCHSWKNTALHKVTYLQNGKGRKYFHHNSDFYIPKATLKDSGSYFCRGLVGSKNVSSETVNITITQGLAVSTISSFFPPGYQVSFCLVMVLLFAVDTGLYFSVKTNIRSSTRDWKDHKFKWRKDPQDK

Binder | EC50 (nM) Mean, FcγRIIa signaling in ADCP reporter assay (HEK-PD-L1 target cells, Jurkat/FcγRIIa-H effector cells, luciferase) [1] [nM] | EC50 (nM) Mean, FcγRIIIa signaling in ADCC reporter assay (HEK-PD-L1 target cells, Jurkat/FcγRIIIa effector cells, luciferase) (FcγRIIIa [2]) [nM] | EC50 (nM) Mean, FcγRIIa signaling in ADCP reporter assay (Raji target cells, Jurkat/FcγRIIa-H effector cells, luciferase) [3] [nM] | EC50 (nM) Mean, FcγRIIIa signaling in ADCC reporter assay (Raji target cells, Jurkat/FcγRIIIa effector cells, luciferase) (FcγRIIIa [4]) [nM]
Fc-antigen binding domain construct 43 (PD-L1) (antibody, human IgG1, lambda) heavy 1: not shown not shown heavy 2: not shown light: QSALTQPASVSGSPGQSITISCTGTSSDVGGYNYVSWYQQHPGKAPKLMIYDVSNRPSGVSNRFSGSKSGNTASLTISGLQAEDEADYYCSSYTSSSTRVFGTGTKVTVLGQPKANPTVTLFPPSSEELQANKATLVCLISDFYPGAVTVAWKADGSPVKAGVETTKPSKQSNNKYAASSYLSLTPEQWKSHRSYSCQVTHEGSTVEKTVAPTECS | 0.037 | 0.028 |  | 
Fc-antigen binding domain construct 44 (PD-L1) (antibody, human IgG1, lambda) heavy 1: not shown not shown heavy 2: not shown light: QSALTQPASVSGSPGQSITISCTGTSSDVGGYNYVSWYQQHPGKAPKLMIYDVSNRPSGVSNRFSGSKSGNTASLTISGLQAEDEADYYCSSYTSSSTRVFGTGTKVTVLGQPKANPTVTLFPPSSEELQANKATLVCLISDFYPGAVTVAWKADGSPVKAGVETTKPSKQSNNKYAASSYLSLTPEQWKSHRSYSCQVTHEGSTVEKTVAPTECS | 0.033 |  |  | 
Fc-antigen binding domain construct 43 (CD20) (antibody, human IgG1, kappa) heavy 1: QVQLVQSGAEVKKPGSSVKVSCKASGYAFSYSWINWVRQAPGQGLEWMGRIFPGDGDTDYNGKFKGRVTITADKSTSTAYMELSSLRSEDTAVYYCARNVFDGYWLVYWGQGTLVTVSSASTKGPSVFPLAPSSKSTSGGTAALGCLVKDYFPEPVTVSWNSGALTSGVHTFPAVLQSSGLYSLSSVVTVPSSSLGTQTYICNVNHKPSNTKVDKKVEPKSCDKTHTCPPCPAPELLGGPSVFLFPPKPKDTLMISRTPEVTCVVVDVSHEDPEVKFNWYVDGVEVHNAKTKPREEQYNSTYRVVSVLTVLHQDWLNGKEYKCKVSNKALPAPIEKTISKAKGQPREPQVYTLPPCRDKLTKNQVSLWCLVKGFYPSDIAVEWESNGQPENNYKTTPPVLDSDGSFFLYSKLTVDKSRWQQGNVFSCSVMHEALHNHYTQKSLSLSPGKGGGGGGGGGGGGGGGGGGGGDKTHTCPPCPAPELLGGPSVFLFPPKPKDTLMISRTPEVTCVVVDVSHEDPEVKFNWYVDGVEVHNAKTKPREEQYNSTYRVVSVLTVLHQDWLNGKEYKCKVSNKALPAPIEKTISKAKGQPREPQVYTLPPSRKELTKNQVSLTCLVKGFYPSDIAVEWESNGQPENNYKTTPPVLKSDGSFFLYSKLTVDKSRWQQGNVFSCSVMHEALHNHYTQKSLSLSPGQ not shown heavy 2: not shown light: DIVMTQTPLSLPVTPGEPASISCRSSKSLLHSNGITYLYWYLQKPGQSPQLLIYQMSNLVSGVPDRFSGSGSGTDFTLKISRVEAEDVGVYYCAQNLELPYTFGGGTKVEIKRTVAAPSVFIFPPSDEQLKSGTASVVCLLNNFYPREAKVQWKVDNALQSGNSQESVTEQDSKDSTYSLSSTLTLSKADYEKHKVYACEVTHQGLSSPVTKSFNRGEC |  |  | 7.8 | 0.86
Fc-antigen binding domain construct 44 (CD20) (antibody, human IgG1, kappa) heavy 1: QVQLVQSGAEVKKPGSSVKVSCKASGYAFSYSWINWVRQAPGQGLEWMGRIFPGDGDTDYNGKFKGRVTITADKSTSTAYMELSSLRSEDTAVYYCARNVFDGYWLVYWGQGTLVTVSSASTKGPSVFPLAPSSKSTSGGTAALGCLVKDYFPEPVTVSWNSGALTSGVHTFPAVLQSSGLYSLSSVVTVPSSSLGTQTYICNVNHKPSNTKVDKKVEPKSCDKTHTCPPCPAPELLGGPSVFLFPPKPKDTLMISRTPEVTCVVVDVSHEDPEVKFNWYVDGVEVHNAKTKPREEQYNSTYRVVSVLTVLHQDWLNGKEYKCKVSNKALPAPIEKTISKAKGQPREPQVYTLPPCRDKLTKNQVSLWCLVKGFYPSDIAVEWESNGQPENNYKTTPPVLDSDGSFFLYSKLTVDKSRWQQGNVFSCSVMHEALHNHYTQKSLSLSPGKGGGGGGGGGGGGGGGGGGGGDKTHTCPPCPAPELLGGPSVFLFPPKPKDTLMISRTPEVTCVVVDVSHEDPEVKFNWYVDGVEVHNAKTKPREEQYNSTYRVVSVLTVLHQDWLNGKEYKCKVSNKALPAPIEKTISKAKGQPREPQVYTLPPSRKELTKNQVSLTCLVKGFYPSDIAVEWESNGQPENNYKTTPPVLKSDGSFFLYSKLTVDKSRWQQGNVFSCSVMHEALHNHYTQKSLSLSPGQKGGGGGGGGGGGGGGGGGGGGDKTHTCPPCPAPELLGGPSVFLFPPKPKDTLMISRTPEVTCVVVDVSHEDPEVKFNWYVDGVEVHNAKTKPREEQYNSTYRVVSVLTVLHQDWLNGKEYKCKVSNKALPAPIEKTISKAKGQPREPQVYTLPPSRKELTKNQVSLTCLVKGFYPSDIAVEWESNGQPENNYKTTPPVLKSDGSFFLYSKLTVDKSRWQQGNVFSCSVMHEALHNHYTQKSLSLSPGQ not shown heavy 2: not shown light: DIVMTQTPLSLPVTPGEPASISCRSSKSLLHSNGITYLYWYLQKPGQSPQLLIYQMSNLVSGVPDRFSGSGSGTDFTLKISRVEAEDVGVYYCAQNLELPYTFGGGTKVEIKRTVAAPSVFIFPPSDEQLKSGTASVVCLLNNFYPREAKVQWKVDNALQSGNSQESVTEQDSKDSTYSLSSTLTLSKADYEKHKVYACEVTHQGLSSPVTKSFNRGEC |  |  | 0.17 | 0.055

— patent US20220267460A1 (MOMENTA PHARMACEUTICALS, published 2022)
